# Data published in the supplement of paper PMC9732359.
# ± gives the uncertainty stated by the source.
# Experiment: protein stability index of a GFP-peptide fusion (yeast GPS) (PSI 1-4); higher = more stable; sorted into four equal gates, so the index is relative within each strain
# Details: doa10∆
# Summary of the method: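 Mid-log yeast cultures in leucine-free medium, carrying a pooled plasmid library, were sorted into four equal gates by their GFP/Cherry fluorescence ratio. Each plasmid expressed Cherry along with GFP fused upstream of a tiled 17-residue yeast protein peptide. Plasmids recovered from each gate were PCR-amplified and Illumina-sequenced, with reads assigned to strains by barcodes. The protein stability index was obtained by summing each gate's read frequency weighted by its gate number.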
row,Sequence,protein stability index
1,KLDENNAQLSCITKQDG [PUP2],2.79 ± 0.12
2,KLDLFKYFTELSHYIRQ [MED1],1.52 ± 0.084
3,KLDTEVKNTNANPVVAT [SWP82],1.94 ± 0.069
4,KLHMGTEDVRLAPELNQ [RPL31B],2.81 ± 0.061
5,KLINIKKFDISNDNLDL [MED1],2.83 ± 0.2
6,KLKNENTDLKDIIQGNP [PCI8],2.82 ± 0.051
7,KLLDNIQEYQLCDNFNH [COR1],2.35 ± 0.074
8,KLLKEKVKLFHGILDDL [MED2],3.1 ± 0.12
9,KLLLLRINSTDEDLHEF [SRB8],2.61 ± 0.2
10,KLNELDELILEAKERYT [NNF1],2.98 ± 0.11
11,KLNTFNLQTFTHEQWSN [SRP72],3 ± 0.12
12,KLNVDQFISSRQFEVKQ [POP1],2.99 ± 0.053
13,KLSDNISICMILCGIQE [YDL116W/NUP84],2.23 ± 0.074
14,KLSDSKTSNIESVPIYS [BRR2],2.5 ± 0.054
15,KLSKEERAARVAAKIAA [RPL5],2.54 ± 0.13
16,KLSKILRTEYGWDSLAS [SNU114],3.17 ± 0.14
17,KLVRESELLGGTFKSTL [QCR2],2.53 ± 0.12
18,KLYFQLFLNTGCLSVLY [SRP68],1.47 ± 0.038
19,KMIILDKLLKRLKEKGS [ISW2],1.58 ± 0.049
20,KMVIAELLPHYPFVTND [YJR042W/NUP85],2.83 ± 0.09
21,KMVKAWNLNQFQIEADF [ASC1],2.58 ± 0.046
22,KNDSAEVRQETQPKAEA [NUT1],3.35 ± 0.15
23,KNDSLEKTINDLQRTQT [YIL149C/MLP2],2.97 ± 0.074
24,KNESATINEMMKHLGRS [FAS2],2.6 ± 0.082
25,KNGLGLNFSTTAPANTT [MED2],2.16 ± 0.07
26,KNKPELYQIDYLGTKVE [PRE1],2.82 ± 0.091

row,Sequence,protein stability index
1,KNLERLRGEYNDLQSET [SMC4],3.33 ± 0.2
2,KNLSLQTGTKPVLKKKA [COR1],2.95 ± 0.07
3,KNMGLVPMKEENLEESF [SSN2],3.07 ± 0.2
4,KNPLFSYVEPVLVASAK [RPL31A],2.95 ± 0.075
5,KNQLRDWIRFVSTKTNE [RPL22A],2.3 ± 0.046
6,KNSDVWFLDHNYIENMN [RPN8],2.68 ± 0.1
7,KNSSTSNTEPIPRSNRH [MED1],3.1 ± 0.14
8,KNTIDFERFPSPSTSAN [RPN4],2.87 ± 0.09
9,KNTMFEKSDALVGVYRQ [SMC1],3.27 ± 0.18
10,KNVETLEEKILAKKTHK [SMC4],2.65 ± 0.075
11,KNVRFRVLQLLAVIMDN [YCG1],1.64 ± 0.057
12,KPETPKGPIIISKNPSN [SIR2],2.92 ± 0.063
13,KPFLKGLVNHRVGVKLK [SMX3],2.76 ± 0.042
14,KPFRQTKFKVRGSSSLY [RPL38],2.83 ± 0.12
15,KPKMLPIPSKPTLFDLA [SRP68],2.48 ± 0.071
16,KPLGPCDVFWVQKDTAI [POP1],2.85 ± 0.07
17,KPPSSAFNFSFNTSRNV [YAR002W/NUP60],3.2 ± 0.042
18,KPTDATGNTTSKSAFSF [YOR098C/NUP1],2.04 ± 0.12
19,KPVYKGKKLTDEINTAQ [RET1],2.92 ± 0.12
20,KQANNFLWPFKLSNPSG [RPL7A],2.69 ± 0.13
21,KQEIREAVELPLVQADL [RPT3],3.2 ± 0.13
22,KQLIMESQEKYMEPFDL [NSL1],3.29 ± 0.072
23,KQNEQLHVEQLSGGQKT [SMC3],2.07 ± 0.095
24,KQQPTMQANKLDSQETP [SWI3],2.95 ± 0.12
25,KQTDTGITHFRAGMTHE [PRP8],2.36 ± 0.055
26,KQYLSASFSLKNGDKPH [RPL6A],2.34 ± 0.057

row,Sequence,protein stability index
1,KRDQYLKSASKETAPVI [RPL28],2.7 ± 0.12
2,KRGEVVKIIRKSETSGR [RPB5],3.04 ± 0.082
3,KRKTNIIMFVGLQGSGK [SRP54],2.69 ± 0.067
4,KRNKYAAMLTSENAREI [RRP45],3.04 ± 0.063
5,KRNSDKVEYKIVHDDPA [ITC1],2.12 ± 0.072
6,KRPPEIMSTEAHVNKVT [SIR4],2.99 ± 0.19
7,KRQFNNSYWLIILLGVL [ITC1],2.16 ± 0.066
8,KRQYVKQFLTKDLKFPL [RPL20A],3 ± 0.055
9,KRRIEEEQEKINSAPDF [ISW2],3.4 ± 0.2
10,KRSGVIETVDDKLKDIV [ITC1],3.15 ± 0.29
11,KRVPNPNFLGNCNIKDF [SWP82],2.05 ± 0.051
12,KRVTIQKKDIKLARRLR [HHT1],3.15 ± 0.14
13,KRYRLKESQLPRIQRAD [RPB5],2.86 ± 0.17
14,KSESDELQMRSFLKEGD [RRP4],3.18 ± 0.13
15,KSFISKLLGIGDIESLF [SRP54],1.56 ± 0.061
16,KSIDSKTPEEVEVYAKI [ISW2],1.88 ± 0.078
17,KSITLKGRNNESNNKKY [YDL088C/ASM4],3.19 ± 0.086
18,KSLAMEHKSQVVLYNYY [CSN12],1.19 ± 0.053
19,KSLDSIPMSKTIKDLVG [FAS2],3.26 ± 0.12
20,KSLGGGAALKDIEIVRV [FAS2],2.27 ± 0.26
21,KSLHEMNERDWRILKED [PRP28],3.4 ± 0.19
22,KSMNKSAINQYNRRQDK [SNF2],2.26 ± 0.075
23,KSRIVKVVGPRGTLTKN [RPL9A],2.66 ± 0.074
24,KSTASTAAANTEKLSNG [YOR098C/NUP1],2.91 ± 0.23
25,KSTTPYVSALKRINKFL [POP7],2.04 ± 0.047
26,KSVKFVQGLLQNAAANA [RPL17A],2.56 ± 0.065

row,Sequence,protein stability index
1,KTEDPKGGIIASVGDIL [YML031W/NDC1],2.57 ± 0.067
2,KTEPVGTGLQSYLEERE [RPC53],3.4 ± 0.25
3,KTGTKPAAVFAETLKHD [RPL4B],2.17 ± 0.078
4,KTLNLFKQIKSADCELL [RPO31],1.22 ± 0.21
5,KTMKTFVIHIQEKNFQT [RPB5],2.05 ± 0.091
6,KTRNPLTHSTPKNFGIG [RPL8A],3.02 ± 0.084
7,KTTITRVEPETFEIPQA [SWI3],2.38 ± 0.066
8,KTYNKLHYCVSCAIHAR [RPS26A],1.21 ± 0.055
9,KVAQLRQTGPAKINEVY [NSL1],2.97 ± 0.14
10,KVFIRESLSLKNIHISK [YML103C/NUP188],2.09 ± 0.039
11,KVIEEQLKHTKLALAEN [SMC4],1.89 ± 0.12
12,KVISEILTKEVQGSTLA [RPS1A],2.29 ± 0.026
13,KVISEILTREVQNSTLA [RPS1B],2.51 ± 0.11
14,KVKAGVRSANEDGTFSV [RRP43],3.2 ± 0.097
15,KVLAAHTKFEVAIGLNG [RRP40],2.44 ± 0.088
16,KVLARQQLQVLARYLKM [FAS2],1.41 ± 0.081
17,KVLLDSKDVQQIDYKLE [RPS7A],2.69 ± 0.21
18,KVSDPYVPTRNTFNYDV [RPN4],2.25 ± 0.14
19,KVSGVSLLALWKEKKEK [RPS23A],2.55 ± 0.22
20,KVTEKVLTQLTALALKY [CSI1],2.24 ± 0.044
21,KVVNGNSADAAYAQVEI [FAS2],2.53 ± 0.063
22,KWKPVLSHIVYFLVLSP [RPN5],1.39 ± 0.033
23,KYDRKVPSPTGEYVKEP [RPO21],2.98 ± 0.1

# Same assay, conditions: pdr5∆
row,Sequence,protein stability index
1,KLDENNAQLSCITKQDG [PUP2],3.13 ± 0.087
